Experimental data reported in US20180057604A1 (Genentech, published 2018).
Read-outs that look alike come from different tables or passages of the source.

T1: cyno TfR extracellular domain (analogous construct to human TfR ecd) (cynomolgus monkey, UniProt Q5RDH6 87-760 (Pongo abelii entry))
T1 construct: also called cynoTfR ecd
T1 chain: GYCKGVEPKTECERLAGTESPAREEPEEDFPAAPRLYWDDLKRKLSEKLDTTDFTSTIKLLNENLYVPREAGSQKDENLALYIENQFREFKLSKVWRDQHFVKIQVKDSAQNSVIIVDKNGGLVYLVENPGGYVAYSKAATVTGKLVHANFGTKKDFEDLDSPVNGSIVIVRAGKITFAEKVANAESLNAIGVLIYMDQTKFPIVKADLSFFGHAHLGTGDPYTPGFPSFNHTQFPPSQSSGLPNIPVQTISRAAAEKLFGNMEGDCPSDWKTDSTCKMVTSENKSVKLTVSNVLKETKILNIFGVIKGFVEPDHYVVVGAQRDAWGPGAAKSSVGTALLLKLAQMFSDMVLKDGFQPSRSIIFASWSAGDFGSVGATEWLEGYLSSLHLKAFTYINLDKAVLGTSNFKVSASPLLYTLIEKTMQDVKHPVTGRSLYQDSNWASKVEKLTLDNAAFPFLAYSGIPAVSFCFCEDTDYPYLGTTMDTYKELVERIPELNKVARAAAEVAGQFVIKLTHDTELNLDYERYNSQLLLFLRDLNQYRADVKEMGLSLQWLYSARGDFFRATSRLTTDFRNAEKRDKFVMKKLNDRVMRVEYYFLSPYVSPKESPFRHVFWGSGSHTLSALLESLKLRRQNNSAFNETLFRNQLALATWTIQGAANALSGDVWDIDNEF


Assays:
[1] = biological target: T2, murine BACE1 ECD; assay: Octet, pH 5.0;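 also: antibodies captured on anti-human capture sensor tips, dissociation monitored in PBS with BSA buffer, kinetics fitted with a one-to-one binding model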
T2 construct: analyte of the Octet assay (200 nM) and enzyme of the first short substrate assay
T2 sequence (single chain, as listed by the source limits assumed): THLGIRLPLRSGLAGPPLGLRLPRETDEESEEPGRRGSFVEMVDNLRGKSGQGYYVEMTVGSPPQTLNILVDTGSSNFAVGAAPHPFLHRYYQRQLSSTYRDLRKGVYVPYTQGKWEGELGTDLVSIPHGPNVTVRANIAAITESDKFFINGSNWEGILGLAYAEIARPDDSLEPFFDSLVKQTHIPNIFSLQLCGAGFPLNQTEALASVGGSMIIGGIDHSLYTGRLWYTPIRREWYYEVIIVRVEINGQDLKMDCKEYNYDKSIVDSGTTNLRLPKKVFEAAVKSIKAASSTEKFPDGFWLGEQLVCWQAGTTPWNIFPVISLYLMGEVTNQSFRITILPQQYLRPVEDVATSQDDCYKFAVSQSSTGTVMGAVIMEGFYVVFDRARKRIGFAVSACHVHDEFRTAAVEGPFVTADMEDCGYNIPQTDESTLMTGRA

[2] = biological target: T3, human BACE1 ECD; assay: Octet, pH 5.0;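 also: antibodies captured on anti-human capture sensor tips, dissociation monitored in PBS with BSA buffer, kinetics fitted with a one-to-one binding model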
T3 construct: analyte of the Octet assay (200 nM) and enzyme of the first short substrate assay; also called human BACE1 extracellular domain
T3 sequence (single chain, as listed by the source limits assumed): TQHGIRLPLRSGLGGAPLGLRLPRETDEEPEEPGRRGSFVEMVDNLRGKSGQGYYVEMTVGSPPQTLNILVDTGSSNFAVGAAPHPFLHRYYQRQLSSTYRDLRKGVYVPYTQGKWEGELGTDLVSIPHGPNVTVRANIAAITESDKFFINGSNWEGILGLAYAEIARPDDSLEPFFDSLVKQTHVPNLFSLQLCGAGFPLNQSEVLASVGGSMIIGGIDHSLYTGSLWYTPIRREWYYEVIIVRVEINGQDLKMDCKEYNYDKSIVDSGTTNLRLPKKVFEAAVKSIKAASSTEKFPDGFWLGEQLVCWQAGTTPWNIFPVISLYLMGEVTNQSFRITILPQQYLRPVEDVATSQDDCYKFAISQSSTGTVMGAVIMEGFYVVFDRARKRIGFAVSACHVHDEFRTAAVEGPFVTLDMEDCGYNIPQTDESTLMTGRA

[3] = biological target: T2, murine BACE1 ECD; assay: cell-based or functional assay
[4] = biological target: T3, human BACE1 ECD; assay: cell-based or functional assay
[5] = biological target: T4, human BACE1 (R&D Systems) (human, UniProt P56817); assay: SPR (Biacore)
T4 construct: recombinant, commercial (R&D Systems)
T4 sequence (P56817 22-457 limits assumed): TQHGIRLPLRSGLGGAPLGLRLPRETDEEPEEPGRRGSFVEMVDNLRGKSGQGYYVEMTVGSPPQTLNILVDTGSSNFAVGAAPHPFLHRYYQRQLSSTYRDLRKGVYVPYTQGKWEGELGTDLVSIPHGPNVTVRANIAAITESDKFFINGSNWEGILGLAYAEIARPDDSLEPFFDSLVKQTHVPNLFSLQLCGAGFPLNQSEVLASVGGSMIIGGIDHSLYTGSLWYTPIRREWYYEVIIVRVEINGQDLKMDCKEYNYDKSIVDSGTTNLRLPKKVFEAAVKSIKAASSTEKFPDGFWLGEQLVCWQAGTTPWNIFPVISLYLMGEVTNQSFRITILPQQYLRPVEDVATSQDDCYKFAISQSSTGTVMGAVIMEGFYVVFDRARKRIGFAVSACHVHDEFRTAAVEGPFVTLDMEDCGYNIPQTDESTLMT

[6] = biological target: T2, murine BACE1 ECD; assay: Octet, pH 7.5;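 also: antibodies captured on anti-human capture biosensor tips, dissociation followed in PBS with BSA buffer, kinetics fitted with a one-to-one binding model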
[7] = biological target: T3, human BACE1 ECD; assay: Octet, pH 7.5;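 also: antibodies captured on anti-human capture biosensor tips, dissociation followed in PBS with BSA buffer, kinetics fitted with a one-to-one binding model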
[8] = biological target: BACE1 (HTRF long substrate and FRET short substrate assays of Example 9D); assay: cell-based or functional assay
[9] = biological target: BACE1 in primary mouse cortical neurons (mouse, UniProt P56818 46-501); assay: cell-based or functional assay
Chain of BACE1 in primary mouse cortical neurons (P56818 46-501): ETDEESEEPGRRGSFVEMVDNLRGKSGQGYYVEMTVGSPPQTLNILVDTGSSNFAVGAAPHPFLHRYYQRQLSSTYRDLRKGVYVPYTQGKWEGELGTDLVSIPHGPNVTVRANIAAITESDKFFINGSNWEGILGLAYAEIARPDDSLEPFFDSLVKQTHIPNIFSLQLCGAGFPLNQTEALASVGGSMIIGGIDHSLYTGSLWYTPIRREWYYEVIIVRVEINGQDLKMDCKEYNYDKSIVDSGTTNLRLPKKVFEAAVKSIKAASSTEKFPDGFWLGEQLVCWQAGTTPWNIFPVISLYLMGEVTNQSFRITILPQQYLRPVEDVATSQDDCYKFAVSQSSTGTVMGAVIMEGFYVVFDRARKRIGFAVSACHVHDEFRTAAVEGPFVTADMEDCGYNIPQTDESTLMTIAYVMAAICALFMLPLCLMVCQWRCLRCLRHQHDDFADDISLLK

[10] = biological target: T5, human TfR extracellular domain with N-terminal His tag (human, UniProt P02786 89-760); assay: SPR, IgG
T5 construct: Biotinylated in some assays; also called huTfR; HuTfR
T5 sequence (P02786 89-760 G142S): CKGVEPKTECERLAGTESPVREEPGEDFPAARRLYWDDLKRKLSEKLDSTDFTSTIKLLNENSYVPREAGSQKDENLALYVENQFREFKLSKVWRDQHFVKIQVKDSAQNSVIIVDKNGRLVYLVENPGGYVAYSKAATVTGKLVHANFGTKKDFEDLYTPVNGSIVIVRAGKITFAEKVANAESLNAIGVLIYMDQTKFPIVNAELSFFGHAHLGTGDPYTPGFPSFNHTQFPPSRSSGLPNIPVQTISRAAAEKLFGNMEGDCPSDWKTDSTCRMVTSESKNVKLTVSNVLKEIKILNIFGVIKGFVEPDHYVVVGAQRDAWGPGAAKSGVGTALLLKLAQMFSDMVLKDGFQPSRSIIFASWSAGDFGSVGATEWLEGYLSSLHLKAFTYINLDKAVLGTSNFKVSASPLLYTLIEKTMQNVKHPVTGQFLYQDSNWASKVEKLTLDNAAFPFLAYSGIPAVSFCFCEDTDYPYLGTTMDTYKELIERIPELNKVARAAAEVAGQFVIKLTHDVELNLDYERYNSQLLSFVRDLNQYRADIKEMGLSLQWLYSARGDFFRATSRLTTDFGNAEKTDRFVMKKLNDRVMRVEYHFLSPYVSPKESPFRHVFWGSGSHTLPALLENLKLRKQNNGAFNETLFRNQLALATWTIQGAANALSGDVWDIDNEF

[11] = biological target: T1, cyno TfR extracellular domain …; assay: SPR, IgG
[12] = biological target: T5, human TfR extracellular domain with …; assay: SPR, IgG; remark: listed apart in the source
[13] = biological target: T1, cyno TfR extracellular domain …; assay: SPR, IgG
[14] = biological target: T5, human TfR extracellular domain with …; assay: SPR, IgG; remark: listed apart in the source
[15] = biological target: T1, cyno TfR extracellular domain …; assay: SPR, IgG

| Binder | Kd [1] [nM] | Kd [2] [nM] | % inhibition of BACE1 activity, short FRET substrate [3] [%] | % inhibition of BACE1 activity, short FRET substrate [4] [%] | Kd [5] [nM] | Kd [6] [nM] | Kd [7] [nM] | EC50, FRET short substrate [8] [nM] | EC50, HTRF long substrate [8] [nM] | IC50, Abeta x-40 in mouse cortical neurons [9] [nM] | maximal % inhibition of Abeta x-40 [9] [%] | Kd [10] [nM] | Kd [11] [nM] | Kd [12] [nM] | Kd [13] [nM] | Kd [14] [nM] | Kd [15] [nM] |
| --- | --- | --- | --- | --- | --- | --- | --- | --- | --- | --- | --- | --- | --- | --- | --- | --- | --- |
| 5890 (antibody, V domains shown, anti-BACE1 IgG) VH: QVQLVQSGAEVKKPGSSVKVSCKASGGTFSSYAISWVRQAPGQGLEWMGNIIPGFGTANYAQKFQGRVTITADESTSTAYMELSSLRSEDTAVYYCARSGGTKYGMLDVWGQGTMVTVSS VL: EIVMTQSPATLSVSPGERATLSCRASQSVGSNLAWYQQKPGQAPRLLIYGASTRATGIPARFSGSGSGTEFTLTISSLQSEDFAVYYCQQLYTWPPRTFGGGTKVEIK | 0.79 | 0.64 | 69 | 66 | 3.22 | 1 | 0.55 | 32.4 | 4.06 | 8.45 | 77 | – | – | – | – | – | – |
| 5891 (antibody, V domains shown, anti-BACE1 IgG) VH: QVQLVQSGAEVKKPGSSVKVSCKASGGTFSSYAISWVRQAPGQGLEWMGNIIPIFGPANYAQKFQGRVTITADESTSTAYMELSSLRSEDTAVYYCARSGGTKYGMLDVWGQGTMVTVSS VL: EIVMTQSPATLSVSPGERATLSCRASQSVGSNLAWYQQKPGQAPRLLIYGASTRATGIPARFSGSGSGTEFTLTISSLQSEDFAVYYCQQLYTWPPRTFGGGTKVEIK | 1.1 | 0.96 | 70 | 71 | 3.29 | 1.4 | 0.65 | 12.4 | 3.03 | 18 | 78 | – | – | – | – | – | – |
| 7A4 HC/8A2 LC (antibody, V domains shown, chimeric IgG; also called ch7A4/8A2) VH: QVQLQQSGPELVRPGVSVKISCKGSGYTFTDYAMHWVKQSHAKSLEWIGGISTYFGRTNYNQKFKGRATMTVDKSSSTAYMELARLTSEDSALYYCARGLSGNYVMDYWGQGTSVTVSS VL: DIVLTQSPASLAVSLGQRATISCRASESVDSYGNSFMHWYQQKPGQPPKLLIYRASNLESGIPARFSGSGSRTDFTLTINPVEADDVATYYCQQSNEGPPTFGGGTKLEIK | – | – | – | – | – | – | – | – | – | – | – | 0.112 | 0.925 | 0.112 | 0.925 | – | – |
| 16F6 (antibody, V domains shown, Mouse hybridoma antibody; also called clone 16F6) VH: DVQLQESGPGLVKPSQSLSLTCTVTGNSITSEYAWNWIRQFPGNKLEWMGYISYSGTTSYNPSLKSRISITRDTSKNQLFLQLNSVTTEDTATYFCARYGYGNPATRYFDVWGAGTTVTVSS VL: DVQITQSPSYLTASPGETITINCRASKSISKYLAWYQEKPGKTNKLLIYSGSTLQSGIPSRFSGSGSGTDFTLTISNLEPEDFAMYYCQQHNEYPWTFGGGTKLEIK | – | – | – | – | – | – | – | – | – | – | – | 2.07 | 7.45 | – | – | 2.07 | 7.45 |
| 5897 (antibody, V domains shown, anti-BACE1 IgG) VH: QLQLQESGPGLVKPSETLSLTCTVSGGSISWSSYYWSWIRQPPGKGLEWIGSIYKSGRTYYNPSLKSRVTISVDTSKNQFSLKLSSVTAADTAVYYCARVGHGISYFDLWGRGTLVTVSS VL: EIVLTQSPATLSLSPGERATLSCRASQSVSSYLAWYQQKPGQAPRLLIYDASNRATGIPARFSGSGSGTDFTLTISSLEPEDFAVYYCQQSLTWPPRTFGGGTKVEIK | 0.82 | 0.82 | -3 | 1 | 2.07 | 1.1 | 0.95 | 0.528 | 1.39 | 0.3 | 62 | – | – | – | – | – | – |
